Data from US20150329626A1.

Biological target: human VEGFR2 on cells (ECFC, HMVEC-d) (human) (UniProt P35968)
Assay: cell-based or functional assay

Sequence of human VEGFR2 on cells (ECFC, HMVEC-d) (human) (P35968 20-1356): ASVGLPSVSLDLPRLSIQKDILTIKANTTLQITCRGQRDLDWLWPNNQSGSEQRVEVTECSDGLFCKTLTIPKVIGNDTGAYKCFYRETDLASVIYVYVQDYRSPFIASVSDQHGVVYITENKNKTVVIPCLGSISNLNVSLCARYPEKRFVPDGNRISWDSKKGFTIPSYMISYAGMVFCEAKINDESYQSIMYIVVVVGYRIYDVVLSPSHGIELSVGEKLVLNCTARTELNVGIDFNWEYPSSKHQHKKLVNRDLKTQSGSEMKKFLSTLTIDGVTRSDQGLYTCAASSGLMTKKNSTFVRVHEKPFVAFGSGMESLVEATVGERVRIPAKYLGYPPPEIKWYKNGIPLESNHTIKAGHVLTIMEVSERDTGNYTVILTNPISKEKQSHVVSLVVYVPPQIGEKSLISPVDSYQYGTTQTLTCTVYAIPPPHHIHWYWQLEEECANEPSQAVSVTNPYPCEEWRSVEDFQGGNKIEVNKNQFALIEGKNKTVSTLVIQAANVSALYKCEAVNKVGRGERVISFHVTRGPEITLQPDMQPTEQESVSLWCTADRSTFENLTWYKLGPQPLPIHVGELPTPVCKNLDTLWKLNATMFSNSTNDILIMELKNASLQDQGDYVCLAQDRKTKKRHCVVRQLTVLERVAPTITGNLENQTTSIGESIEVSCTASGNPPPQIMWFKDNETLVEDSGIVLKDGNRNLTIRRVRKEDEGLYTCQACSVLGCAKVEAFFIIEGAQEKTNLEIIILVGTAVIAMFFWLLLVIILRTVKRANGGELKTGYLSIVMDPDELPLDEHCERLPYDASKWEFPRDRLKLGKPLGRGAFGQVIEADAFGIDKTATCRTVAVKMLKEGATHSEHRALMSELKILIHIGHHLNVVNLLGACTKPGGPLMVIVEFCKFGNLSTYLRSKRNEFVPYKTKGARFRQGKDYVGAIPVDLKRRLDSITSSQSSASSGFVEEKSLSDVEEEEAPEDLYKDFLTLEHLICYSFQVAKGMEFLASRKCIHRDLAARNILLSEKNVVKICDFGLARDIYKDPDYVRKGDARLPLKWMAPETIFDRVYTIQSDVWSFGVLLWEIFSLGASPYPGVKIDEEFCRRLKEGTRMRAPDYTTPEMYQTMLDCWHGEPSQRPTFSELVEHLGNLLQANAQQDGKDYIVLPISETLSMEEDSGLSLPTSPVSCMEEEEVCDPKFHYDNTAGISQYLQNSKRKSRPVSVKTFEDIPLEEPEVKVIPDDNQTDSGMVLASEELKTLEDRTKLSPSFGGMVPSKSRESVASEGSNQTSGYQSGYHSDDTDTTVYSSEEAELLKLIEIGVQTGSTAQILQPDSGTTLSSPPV

inhibition of human VEGF165-induced proliferation of HMVEC-d (IC50): 31.4 nM
Substance: IMC-1121B (antibody)
